Results taken from patent US20240116985A1 (published 2024).
Starred links: 1 amine or outer side, 2 acyl side, 3 side chain; linkers in the order of their positions; H or OH if unused. Positions of bridges follow the written chain, without caps; N, C: chain ends. Non-standard residues stand in square brackets, D forms with d. Primed or numbered codes have the meaning given here. B5(10) = 2-amino-2-(pent-4-en-1-yl)hept-6-enoic acid, bis(4-pentenyl)glycine, stitching residue bearing both staples, C=CCCCC(CCCC=C)(N[*:1])C(=O)[*:2]; PyrS2″ = (S)-3-amino-1-((pent-4-en-1-yloxy)carbonyl)pyrrolidine-3-carboxylic acid (stapling residue), C=CCCCOC(=O)N1CC[C@@](N[*:1])(C(=O)[*:2])C1; SeN″ = (S)-5-(((allyloxy)carbonyl)(methyl)amino)-2-amino-2-methylpentanoic acid (stapling residue), C=CCOC(=O)N(C)CCC[C@](C)(N[*:1])C(=O)[*:2]; B5(4) = 2,2-bis(4-pentenyl)glycine = 2-amino-2-(pent-4-en-1-yl)hept-6-enoic acid (stitching residue), C=CCCCC(CCCC=C)(N[*:1])C(=O)[*:2]; B5(5) = 2,2-bis(4-pentenyl)glycine, 2-amino-2-(pent-4-en-1-yl)hept-6-enoic acid (stitching residue), C=CCCCC(CCCC=C)(N[*:1])C(=O)[*:2]; MorphAsn = (S)-2-amino-4-morpholino-4-oxobutanoic acid, O=C(C[C@H](N[*:1])C(=O)[*:2])N1CCOCC1; S7 = C[C@@](CCCCCC=[*:3])(N[*:1])C(=O)[*:2]; Bta = N[C@@H](Cc1csc2ccccc12)C(=O)O; Lys(iPr) = CC(C)NCCCC[C@H](N)C(=O)O; αAllylPro = C=CC[C@@]1(C(=O)O)CCCN1; tBuAla = CC(C)(C)C[C@H](N)C(=O)O; 3Thi = N[C@@H](Cc1ccsc1)C(=O)O; Aad = N[C@@H](CCCC(=O)O)C(=O)O; Cha = N[C@@H](CC1CCCCC1)C(=O)O; S8 = C=CCCCCCC[C@](C)(N)C(=O)O; hSer = N[C@@H](CCO)C(=O)O; 34ClF = not defined here; Aib = CC(C)(N)C(=O)O

T1: beta-catenin in DLD1 TCF/LEF luciferase reporter cells (UniProt P35222 1-781)
T1 sequence (looked up): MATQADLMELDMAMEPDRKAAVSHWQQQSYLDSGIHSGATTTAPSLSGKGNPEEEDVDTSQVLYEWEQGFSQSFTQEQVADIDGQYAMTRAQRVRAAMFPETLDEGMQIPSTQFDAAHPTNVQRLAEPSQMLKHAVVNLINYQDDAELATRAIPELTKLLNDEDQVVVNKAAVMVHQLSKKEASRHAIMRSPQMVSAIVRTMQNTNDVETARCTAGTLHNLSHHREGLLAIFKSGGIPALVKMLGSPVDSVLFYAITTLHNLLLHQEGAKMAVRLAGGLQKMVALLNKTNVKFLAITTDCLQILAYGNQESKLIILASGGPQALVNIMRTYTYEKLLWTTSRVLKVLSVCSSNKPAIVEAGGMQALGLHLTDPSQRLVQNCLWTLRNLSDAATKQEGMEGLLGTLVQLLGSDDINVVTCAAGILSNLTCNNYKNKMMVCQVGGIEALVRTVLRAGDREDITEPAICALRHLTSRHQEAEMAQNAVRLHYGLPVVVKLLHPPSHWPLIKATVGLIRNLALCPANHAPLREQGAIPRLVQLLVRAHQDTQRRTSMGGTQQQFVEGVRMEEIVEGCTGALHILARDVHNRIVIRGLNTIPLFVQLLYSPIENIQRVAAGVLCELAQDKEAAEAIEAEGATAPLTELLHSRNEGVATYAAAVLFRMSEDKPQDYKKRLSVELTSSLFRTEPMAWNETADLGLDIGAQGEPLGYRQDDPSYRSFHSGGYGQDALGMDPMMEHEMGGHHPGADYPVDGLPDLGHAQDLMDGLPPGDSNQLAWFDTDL

T2: B-cat-Halo (UniProt P35222 1-781)
T2 sequence (looked up): T1 sequence (looked up)

T3: full-length beta-Catenin (Uniprot ID P35222) (Homo sapiens (Human), UniProt P35222 2-781)
T3 construct: also called B-Catenin; bCat
T3 sequence: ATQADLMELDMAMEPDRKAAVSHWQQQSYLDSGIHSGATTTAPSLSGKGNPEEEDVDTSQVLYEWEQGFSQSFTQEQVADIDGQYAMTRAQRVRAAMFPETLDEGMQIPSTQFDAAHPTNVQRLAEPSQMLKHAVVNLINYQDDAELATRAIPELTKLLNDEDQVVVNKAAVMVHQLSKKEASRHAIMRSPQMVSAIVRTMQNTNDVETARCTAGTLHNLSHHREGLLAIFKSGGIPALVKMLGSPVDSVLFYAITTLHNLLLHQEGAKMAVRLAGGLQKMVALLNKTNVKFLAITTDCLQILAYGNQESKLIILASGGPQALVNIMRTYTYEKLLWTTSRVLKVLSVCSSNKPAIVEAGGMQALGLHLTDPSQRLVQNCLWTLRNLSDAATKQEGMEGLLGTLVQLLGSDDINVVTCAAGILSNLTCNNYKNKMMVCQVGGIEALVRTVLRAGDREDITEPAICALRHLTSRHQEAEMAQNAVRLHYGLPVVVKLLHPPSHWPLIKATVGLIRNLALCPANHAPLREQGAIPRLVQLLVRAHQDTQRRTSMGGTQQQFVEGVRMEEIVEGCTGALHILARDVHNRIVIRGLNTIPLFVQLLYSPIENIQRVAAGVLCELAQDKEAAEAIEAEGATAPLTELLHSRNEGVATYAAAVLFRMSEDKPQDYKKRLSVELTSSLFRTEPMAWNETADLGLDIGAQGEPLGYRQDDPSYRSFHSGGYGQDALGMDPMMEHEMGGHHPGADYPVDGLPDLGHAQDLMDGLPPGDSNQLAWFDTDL

B1: I-2413 (peptide)
peptide: Ac-[αAllylPro]D[tBuAla][B5(5)]NT[Aib]AFN[PyrS2″][3Thi][Bta]R-NH2
modifications: staple 1-4, 4-11
B2: I-2416 (peptide)
peptide: Ac-[αAllylPro]D[tBuAla][B5(5)]NT[Aib]AFN[PyrS2″][3Thi][Bta]T-NH2
modifications: staple 1-4, 4-11
B3: I-2417 (peptide)
peptide: Ac-[αAllylPro]D[tBuAla][B5(5)]NT[Aib]AFN[PyrS2″][3Thi][34ClF]Q-NH2
modifications: staple 1-4, 4-11; reading uncertain; also: printed as Ac-PL3-Asp-Npg-B5-Asn-Thr-Aib-Ala-Phe-Asn-PyrS2-3Thi-34C1F-Gln-NH2
B4: I-2419 (peptide)
peptide: Ac-[αAllylPro]N[Cha][B5(5)]DQ[hSer]AFL[PyrS2″]F[Bta]K-NH2
modifications: staple 1-4, 4-11
B5: I-2421 (peptide)
peptide: Ac-[αAllylPro]N[Cha][B5(5)]DQQAFL[PyrS2″]F[Bta]K-NH2
modifications: staple 1-4, 4-11
B6: I-2426 (peptide)
peptide: Ac-[αAllylPro]N[Cha][B5(5)]DQ[Lys(iPr)]AFL[PyrS2″]F[Bta][MorphAsn]-NH2
modifications: staple 1-4, 4-11
B7: I-2429 (peptide)
peptide: Ac-[αAllylPro]D[Cha][B5(5)]DQ[Lys(iPr)]AFL[PyrS2″]F[Bta]K-NH2
modifications: staple 1-4, 4-11
B8: I-123 (peptide)
peptide: Ac-[αAllylPro]DA[B5(4)]DEAAFV[S8]FWQ-NH2
modifications: staple 1-4, 4-11
notes: Stitched (two-staple) peptide composition
B9: I-125 (peptide)
peptide: XDAXDNAAFVXFWQ
modifications: not fully specified; as printed: Ac-PL3-Asp-Ala-B5-Asp-Asn-Ala-Ala-Phe-Val-S8-Phe-Trp-Gln-NH2; staples PL3(1)-B5(4) and B5(4)-S8(11)
notes: as for B8
B10: I-127 (peptide)
peptide: Ac-[αAllylPro]DA[B5(5)]DQAAFV[S8]FWQ-NH2
modifications: staple 1-4, 4-11
notes: as for B8
B11: I-129 (peptide)
peptide: Ac-[αAllylPro]DA[B5(10)]D[Aad]AAFV[S8]FWQ-NH2
modifications: staple 1-4, 4-11
notes: as for B8
B12: I-131 (peptide)
peptide: Ac-[αAllylPro]DA[B5(4)]DEAAFV[SeN″]FWQ-NH2
modifications: staple 1-4, 4-11
notes: Stitched (two-staple) peptide composition; same description as I-130, separate later-eluting HPLC peak (staple isomer)
B13: I-132 (peptide)
peptide: Ac-[αAllylPro]DA[B5(4)]DEAAFV[S7]FWQ-NH2
modifications: staple 1-4, 4-11
notes: as for B8

The binders below were run against T1, beta-catenin in DLD1 TCF/LEF luciferase … (assay: cell-based or functional assay).

Row | Binder | DLD1 4% Abs IC50 [µM]
1 | B1 | > 20
2 | B2 | > 20

The binders below were run against T2, B-cat-Halo (assay: cell-based or functional assay).

Row | Binder | NanoBRET Abs IC50 [µM]
3 | B3 | 21.6
4 | B4 | > 20
5 | B5 | > 20
6 | B6 | > 20
7 | B7 | > 20

What follows are binders tested against T3, full-length beta-Catenin (Uniprot ID …) (assay: Alphascreen competition; biotin-TCF4(10-53) probe with full-length beta-catenin).
Procedure: Equal volume of the titrated peptide was added to the plate and incubated for 15 minutes at 20° C. Then 4 uL of donor and 4 uL acceptor beads at 10 ug/mL were added to the plate, for a 16 uL reaction pool and protected from light for 60 minutes at 20° C. prior to read. Reads were performed on a CLARIOstar plate reader (BMG Labtech) in duplicate, and data were fitted to a 1:1 binding model with hill slope using an in-house script. All provided concentrations are final concentrations.

Row | Binder | EC50 [µM]
8 | B8 | 0.444
9 | B9 | 0.569
10 | B10 | 0.552
11 | B11 | 0.083
12 | B12 | 0.4
13 | B13 | 5.09

Each binder was assayed against T3, full-length beta-Catenin (Uniprot ID …) (assay: fluorescence polarization competition; 5FAM-TCF4(10-53) probe with full-length beta-catenin).
Procedure: The plate was incubated protected from light for 60 minutes at 20° C. prior to read. Reads were performed on a CLARIOstar plate reader (BMG Labtech) in duplicate, and data were fitted to a 1:1 binding model with hill slope using an in-house script. All provided concentrations are final concentrations.

Row | Binder | EC50 [µM]
14 | B8 | 2.11
15 | B9 | 3.06
16 | B10 | 4.84
17 | B11 | 1.98
18 | B12 | 2.16
19 | B13 | 5
